# The supplement of paper PMC10126150
# ± gives the standard deviation of the averaged measurements.
# Test system: ATP
# Test: switch fluorescence ratio, 500 uM ATP over buffer (Cy3 cluster intensity, sum of 5 cycles each) (fold (ratio)); higher = stronger signal-on switching upon ATP binding; sequences stand for … in TCGTCGGCAGCGTCAGATGTGTATAAGAGACAGTTTTTTTTTTTTTTTTTTTTTTTTT…TC
# Details: aptamer strand: ATP DNA aptamer (quencher-CACCTGGGGGAGTATTGCGGAGGAAGG + anchor), 100 nM annealed; ATP concentration: 500 uM
# Procedure, shortened: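 After annealing to 100 nM quencher-labelled ATP aptamer, Cy3-labelled switching-strand clusters on a modified Illumina MiSeq flow-cell were imaged in selection buffer. A second image followed after 15 min with 500 uM ATP at 22 °C, and five such buffer/ATP cycles were done, each separated by NaOH stripping and re-annealing. The fluorescence ratio, averaged per switch-domain sequence, is summed target-cycle over summed buffer-cycle Cy3 intensity per cluster, with clusters outside 100-1000 RFU excluded.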
# 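Also: ATP exposure 15 min at 22 °C before imaging.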
row,Sequence,switch fluorescence ratio
1,AATTCTATAG,0.995 ± 0.033
2,CGTGCACAAA,0.9815 ± 0.0059
3,TGGGGATACC,0.987 ± 0.035
4,GTGACTGTGT,0.963 ± 0.014
5,ATACTGAGGA,1.05 ± 0.026
6,CACTGTGTGG,0.987 ± 0.042
7,GTGATTCCGA,1.02 ± 0.029
8,CCGTCGGTCG,1 ± 0.023
9,TTGCTAGTTA,0.971 ± 0.037
10,GATAAAGGGT,1.005 ± 0.0052
11,CGGTTTGGCA,0.992 ± 0.014
12,GTATTTGGGT,0.986 ± 0.041
13,GGCGCTAGCG,0.993 ± 0.068
14,CGCATGAGGC,1.18 ± 0.045
15,TTTCGTTATT,1.34 ± 0.73
16,TTTGCACGTA,0.991 ± 0.084
17,ATTTTTATGG,0.996 ± 0.036
18,GGTTATATTT,1.03 ± 0.072
19,TAAGGGAGGG,1.05 ± 0.029
20,GCTTCAAGAC,1.58 ± 0.0071
21,GGGGTGAGTA,0.98 ± 0.053
22,TTTTAATTAG,1.01 ± 0.018
23,AGCTTTAGAC,1.09 ± 0.021

row,Sequence,switch fluorescence ratio
1,GCATGCAGGA,1.01 ± 0.02
2,AATGTCAATG,0.991 ± 0.021
3,TGCATGTCGC,0.991 ± 0.025
4,TAAGAGGGAG,0.966 ± 0.036
5,AATGCTGTGT,0.97 ± 0.021
6,CTTCGCCTTT,1.06 ± 0.016
7,GAGATGGGCA,1.01 ± 0.06
8,AGGCGCAGTG,1.04 ± 0.054
9,GGGCTTGCAA,1.04 ± 0.016
10,GGGGGGGTTA,0.992 ± 0.025
11,TAAAAGACTG,0.992 ± 0.094
12,CCGCAGGGGT,3.1 ± 2.8
13,TGATGACCAT,1.006 ± 0.0079
14,AGGGGCGGGG,0.995 ± 0.029
15,TCAGGGGGCT,1.03 ± 0.088
16,GGCGGTGTGG,0.981 ± 0.023
17,TGCAGGGCAA,1.02 ± 0.044
18,GTTTTCTTCA,1.04 ± 0.018
19,GGTGCGTACG,1.01 ± 0.058
20,CACTATGGGA,1.02 ± 0.027
21,GGGGTGGGCT,0.956 ± 0.031
22,TACTCTGGTG,1.43 ± 0.019
23,TGGGGGTAGG,1.01 ± 0.027

row,Sequence,switch fluorescence ratio
1,GCCCTTTTAC,1.19 ± 0.074
2,TTCGAGCATT,1.39 ± 0.17
3,GCCAGGGACG,1.02 ± 0.028
4,GCTTTTCATT,0.988 ± 0.038
5,GGTTTGATGC,0.962 ± 0.055
6,AGCGCGCGGC,0.998 ± 0.013
7,CACTTTCACA,1.17 ± 0.055
8,GGGGGCAAGC,1.25 ± 0.35
9,TGGGGGACCC,1 ± 0.061
10,CGTGATGATT,0.9809 ± 0.0078
11,ACATTCGCGT,1.05 ± 0.018
12,CTTATGAAGG,0.989 ± 0.024
13,CAGGGGTACG,0.991 ± 0.042
14,GGGTATAAGA,0.9976 ± 0.0075
15,TGAGCACGGG,1.03 ± 0.02
16,AATACTACTA,1.05 ± 0.053
17,TTTTTCCCAT,1.03 ± 0.014
18,CTTCTATGTT,0.984 ± 0.002
19,TGCGTTACAG,1.01 ± 0.044
20,GGGGGATGGC,0.975 ± 0.064
21,CCTTTGCTGT,1.073 ± 0.0024
22,TAAAGGATAA,0.9849 ± 0.0093
23,TTATATTCCT,1.11 ± 0.048

row,Sequence,switch fluorescence ratio
1,CACTCGGAAT,1.19 ± 0.03
2,CTTAATCACT,1.03 ± 0.083
3,TGCGGGTCGG,1.03 ± 0.031
4,AACGCCTTCG,1.177 ± 0.011
5,CGAGTTTTTA,0.994 ± 0.027
6,GGTATAATTT,1.04 ± 0.044
7,ACTATGGCTG,0.957 ± 0.045
8,GGGGTTTATA,0.997 ± 0.026
9,TTAGGTCTTC,1.02 ± 0.014
10,GCATTGGTTT,0.982 ± 0.011
11,GCTGTGGATG,1.02 ± 0.024
12,TATCTCCAAT,1.12 ± 0.052
13,GTGGGCCAGC,0.964 ± 0.082
14,CTATTCAGGG,1.02 ± 0.066
15,GCTTGTCTCG,1 ± 0.053
16,TTTGCAGAAA,0.996 ± 0.018
17,TCTGGGTTGG,1.013 ± 0.0074
18,TTTTTGGTCT,0.997 ± 0.027
19,GGGTGGATGA,1.03 ± 0.042
20,CGGAAGGCAT,1.04 ± 0.025
21,ATCGAGAGGT,0.973 ± 0.019
22,AAGTTCGATG,0.976 ± 0.025
23,TTTCGTTTTA,0.996 ± 0.033

row,Sequence,switch fluorescence ratio
1,GCGTAGGGGG,0.95 ± 0.046
2,AAACTGAATA,1.03 ± 0.016
3,GGTTTAGTTT,0.99 ± 0.035
4,CATGATAGGG,1.01 ± 0.031
5,ACGTTCTGTT,1.02 ± 0.023
6,CCAAGGTGGG,1.1 ± 0.016
7,GGCCCCCGGC,0.969 ± 0.026
8,TACTAGGCTG,0.992 ± 0.081
9,GCGTCGAAGG,0.981 ± 0.047
10,GTTAGGGGAA,1.02 ± 0.031
11,GGTTGAATGA,0.992 ± 0.053
12,TATTGTTCTG,0.9819 ± 0.0025
13,ACTAAACGAG,1.062 ± 0.0078
14,TGGGTTCCCG,0.986 ± 0.013
15,AAGAGTTCGT,0.955 ± 0.023
16,TTTTTGAAAG,0.996 ± 0.013
17,TTTTAATGAG,0.9774 ± 0.00031
18,TCTGGTGCAT,1.17 ± 0.14
19,TAATGCATTT,1.01 ± 0.017
20,GCTTTTAGAT,0.9794 ± 0.0028
21,AACGTAGGGA,1.93 ± 1.2
22,AAGAGGGGTG,1.01 ± 0.025
23,CGAGGAATTT,1.04 ± 0.043

row,Sequence,switch fluorescence ratio
1,ACCACGAATG,1.025 ± 0.0051
2,GAGAGGGCAG,0.9869 ± 0.0072
3,ATTGGTCTGC,1.02 ± 0.04
4,TGGTGAGGAG,0.98 ± 0.013
5,TAGAAAAAGC,0.9717 ± 0.0093
6,TTGAAACATT,1.01 ± 0.024
7,TGATTGGGTA,1 ± 0.019
8,TGGGATTTGA,0.993 ± 0.023
9,TGAAAATTGA,0.999 ± 0.017
10,GGGTCGTAGG,1.002 ± 0.0011
11,CCTGGGGAAA,0.946 ± 0.021
12,TGACGAAGGG,0.987 ± 0.023
13,GCGGTCCGTT,0.9614 ± 0.0012
14,TTGGGTATTG,0.966 ± 0.034
15,GAGGTTTTTT,0.987 ± 0.021
16,AGATGATCAG,0.982 ± 0.02
17,ATTCGAGCTG,1.002 ± 0.0034
18,TTGGTTAGGG,0.986 ± 0.027
19,CAAGATTGGA,0.961 ± 0.025
20,TATCCGGGTG,3.23 ± 0.25
21,TTTTGGGTAC,0.995 ± 0.04
22,ATGTATCGGG,0.975 ± 0.036
23,TTTCGTATTT,0.992 ± 0.046

row,Sequence,switch fluorescence ratio
1,GCTGGGGCCA,1.023 ± 0.0017
2,ATTTACTCAT,1.038 ± 0.0012
3,AAGTCGGGTG,1.08 ± 0.024
4,AATGGGTTGA,0.9743 ± 0.0053
5,TCGGTAAATT,1.05 ± 0.014
6,TTAAGCTTGA,1.015 ± 0.0062
7,CCTGTACCAC,1.07 ± 0.019
8,GGGTGATATT,0.996 ± 0.026
9,TTTTTACAGG,1.13 ± 0.16
10,CGGAGATAGT,1.02 ± 0.028
11,GAATTGCTGG,1.01 ± 0.015
12,GGTTGCTTGA,0.9848 ± 0.002
13,ATAGACGGTT,1.02 ± 0.048
14,GTTTGTGTTC,0.988 ± 0.015
15,GGGGGCAATG,1.13 ± 0.064
16,TTTAGTTTTC,0.991 ± 0.019
17,TTGTTTCGGT,1.02 ± 0.063
18,GGGGTGGGAA,0.9795 ± 0.0094
19,AAAGTGGGG,0.973 ± 0.016
